The experiment has as its target Envelope glycoprotein gp120Bal (HIV-1 isolate Bal). The experiment can be described thus: ELISA.

On to “macaque germline HV control scFv (macaque germline b12 HV recombined with human mature b12 D(J)-segments and VL)”, for which the EC50 turned out to be 2500 nM.

“human germline HV control scFv (human germline b12 HV recombined with human mature b12 D(J)-segments and VL)” yielded an EC50 of 24.1 nM.

Values taken from article PMC3167946.
